From patent US20210380675A1 (Kyowa Kirin, published 2021)
Changes are numbered by the printed parent chain.

T1: human IL-36α(R12), truncated (human, UniProt Q9UHA7 6-158)
T1 chain: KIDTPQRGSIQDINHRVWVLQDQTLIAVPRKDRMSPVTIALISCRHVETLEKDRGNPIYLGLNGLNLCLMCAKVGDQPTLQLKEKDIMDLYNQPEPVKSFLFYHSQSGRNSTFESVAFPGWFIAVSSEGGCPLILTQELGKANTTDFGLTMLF

T2: human IL-36γ, truncated (human, UniProt Q9NZH8 18-169)
T2 sequence: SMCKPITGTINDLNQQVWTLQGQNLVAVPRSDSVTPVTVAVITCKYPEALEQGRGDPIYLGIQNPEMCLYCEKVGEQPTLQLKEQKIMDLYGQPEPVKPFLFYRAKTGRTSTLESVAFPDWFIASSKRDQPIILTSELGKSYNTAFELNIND

T3: human IL-36α(Q12), truncated (human, UniProt Q9UHA7 6-158)
T3 construct: Untagged after removal of the His-SUMO tag
T3 sequence: T1 chain with R7Q

T4: cynomolgus IL-36α, truncated (cynomolgus macaque (Macaca fascicularis), UniProt Q9UHA7 14-158 (human entry), limits assumed)
T4 construct: Untagged after removal of the His-SUMO tag; also called cynomolgus IL-36 alpha; cyIL-36alpha
T4 chain: T1 chain with I2S, D3E, T4M, R7P, G8V, T24I, M34V, A40S, V74A

T5: cynomolgus IL-36γ, truncated (cynomolgus macaque (Macaca fascicularis), UniProt Q9NZH8 18-167 (human entry), limits assumed)
T5 construct: Untagged after removal of the His-SUMO tag; also called cynomolgus IL-36 gamma; cyIL-36gamma
T5 chain: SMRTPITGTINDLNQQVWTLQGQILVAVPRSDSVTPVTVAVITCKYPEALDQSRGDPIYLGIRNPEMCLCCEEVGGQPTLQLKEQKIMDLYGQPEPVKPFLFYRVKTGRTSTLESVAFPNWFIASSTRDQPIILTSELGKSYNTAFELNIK

B1: chimeric m/h 144D464A (antibody, human IgG1, lambda, V domains shown)
VH: EVQLQQSGAELVKPGASVRLSCTASGFNIKDTYIHWVKQRPEQGLEWIGRIDPAIGTTRYDPKFQGKATITTDTSSDTVHLQFSSLTSEDTAVYYCARLHYFGNNFFFDYWGQGTTLTVSS
VL: QAVVTQESALTTSPGEAVTLTCRSSSGAVTTSNYANWVQEKPDHLFAGLIGGTNDRAPGVPARFSGSLIGDKAALTITGAQTEDEAIYFCALWFSNHWVFGGGTKLTVLG
notes: Mouse VH/VL joined to human IgG1 constant and human Ig lambda (IGLC2) constant; also called chimeric mouse/human (m/h) 144D464A antibody
B2: 144L124B (antibody, V domains shown)
VH: EVQLQQSGAELVKPGASVKLSCTASGFNIKDTYIYWVKQRPEQGLEWIGRIDPANGYTRYDPKFQGKATMTADTSSNTAYLQLSSLTSEDTAVYYCARYEYYDSSFYFDYWGQGTTLTVSS
VL: QAVVTQESALTTSPGETVTLTCRSSTGAVTTSNYANWVQEKPDHLFTGLIGGTNNRAPGVPARFSGSLIGDKAALTITGAQTEDEAIYFCALWYSNHLVFGGGTKLTVL
notes: Mouse monoclonal from hybridoma; mouse IgG heavy and lambda light chain; Same VH and VL as 144L180A
B3: 144L180A (antibody, V domains shown)
VH: B2 VH
VL: B2 VL
B4: m/h 144L124B (antibody, human IgG1, lambda, V domains shown)
VH: B2 VH
VL: B1 VL with A17T, S26T, A47T, D55N, F94Y, W98L
notes: Mouse VH/VL joined to human IgG1 constant and human Ig lambda (IGLC2) constant; also called chimeric mouse/human 144L124B
B5: 144L133B (antibody, V domains shown)
VH: B2 VH with I34M, N55I, Y57T, M70L, Y80F, E100D, Y102S, D103G, Q113R
VL: B2 VL

How the values were obtained:
[1] = molecular target: T1, human IL-36α(R12), truncated; assay: cell-based or functional assay
human IL-36γ, truncated [2] = molecular target: T2, human IL-36γ, truncated; assay: cell-based or functional assay
[3] = molecular target: T1, human IL-36α(R12), truncated; assay: SPR, Biacore T200, antibody on chip, IL-36 as analyte, 1:1 Langmuir fit
Description: (§1) Antibodies were further tested for their binding to recombinant human or cynomolgus IL36α, IL-36γ in Biacore assays. In order to kinetically analyze the binding activity of the IL-36α and IL-36γ dual antagonist antibodies, the binding activity to human and cynomolgus IL-36α and IL-36γ was measured by surface plasmon resonance method (SPR). All of the following manipulations were carried out using a Biacore T200 (GE Healthcare Life Sciences, Pittsburgh, Pa.).
(§2) To determine antibody affinity to human and cynomolgus IL36, recombinant antibodies were immobilized on a CM5 sensor chip (cat# BR100012, GE Healthcare Life Sciences, Pittsburgh, Pa.) by an amine coupling chemistry. In particular, the kinetic assay was carried out by immobilizing on the chip approximately 2000 RU of recombinant antibody. Thereafter, recombinant human or cynomolgus IL36 proteins, serially diluted from a high concentration, were allowed to run at a flow rate of 30 μL/min onto the chip for 420 seconds. The dissociation time was 3600 seconds and the binding curves were measured at 25° C. Regeneration was performed with 10 mM glycine pH 1.5 for 30s. Alternatively, the analytes were injected with increasing concentrations in a single cycle, the surface not being regenerated between injections, using a method referred to as “single cycle kinetics.” In particular, either anti-human or anti-mouse Fc specific antibodies were immobilized on a CM5 sensor chip (cat# BR100012, GE Healthcare Life Sciences, Pittsburgh, Pa.) by an amine coupling chemistry. Thereafter, IL-36α and IL-36γ dual antagonist mouse/human chimeric or mouse antibodies were captured at approximately 200 RUs, followed by injections of increasing concentrations of recombinant human and cynomolgus IL36 proteins. The association time was 300 seconds, and the final dissociation time was 1200 seconds. At the end of the analyte injections, the surface was regenerated with either 3M MgCl₂ (anti-human Fc capture antibody) for 30 s or 10 mM glycine-HCl pH 1.7 for 180 s (anti-mouse IgG capture antibody).
(§3) The raw data were double referenced by subtraction of the signals from a reference flow cell without immobilized ligand and a buffer blank. The sensorgram corresponding to each concentration was obtained.

[4] = molecular target: T3, human IL-36α(Q12), truncated; assay: as above
Description: as §1, §2, §3

[5] = molecular target: T4, cynomolgus IL-36α, truncated; assay: as above
Description: as §1, §2, §3

[6] = molecular target: T5, cynomolgus IL-36γ, truncated; assay: as above
Description: as §1, §2, §3

human IL-36γ, truncated [7] = molecular target: T2, human IL-36γ, truncated; assay: as above
Description: as §1, §2, §3

[8] = molecular target: T5, cynomolgus IL-36γ, truncated; assay: cell-based or functional assay
human IL-36γ, truncated [9] = molecular target: T2, human IL-36γ, truncated; assay: cell-based or functional assay; remark: listed apart in the source
[10] = molecular target: T1, human IL-36α(R12), truncated; assay: cell-based or functional assay
human IL-36γ, truncated [11] = molecular target: T2, human IL-36γ, truncated; assay: cell-based or functional assay; remark: listed apart in the source
[12] = molecular target: T1, human IL-36α(R12), truncated; assay: cell-based or functional assay
[13] = molecular target: T4, cynomolgus IL-36α, truncated; assay: cell-based or functional assay

Row | Binder | IC50 of IL-8 secretion, primary human monocytes, 20 nM human IL-36α, FIG. 5A [1] [nM] | IC50 of IL-8 secretion, primary human monocytes, 40 nM human IL-36α, FIG. 5B [1] [nM] | IC50 of IL-8 secretion, primary human monocytes, 50 nM human IL-36γ, FIG. 5D (human IL-36γ, truncated [2]) [nM] | Kd [3] [nM] | koff [3] [s⁻¹] | kon [3] [M⁻¹ s⁻¹] | Kd [4] [nM] | koff [4] [s⁻¹] | kon [4] [M⁻¹ s⁻¹] | Kd [5] [nM] | koff [5] [s⁻¹] | kon [5] [M⁻¹ s⁻¹] | Kd [6] [nM] | koff [6] [s⁻¹] | kon [6] [M⁻¹ s⁻¹] | Kd (human IL-36γ, truncated [7]) [nM] | IC50 of IL-8 secretion, HaCaT, 10 nM cynomolgus IL-36γ, FIG. 2D [8] [nM] | IC50 of IL-8 secretion, HaCaT, 10 nM human IL-36γ, FIG. 1F (human IL-36γ, truncated [9]) [nM] | IC50 of IL-8 secretion, HaCaT, 10 nM human IL-36α, FIG. 1C [12] [nM] | IC50 of IL-8 secretion, HaCaT, 10 nM cynomolgus IL-36α, FIG. 2B [13] [nM] | other results
1 | B1 | 7.15 | 22.4 | 33.3 | 2.18 | 0.000309 | 142000 | 1.08 | 0.000391 | 361000 | 1.64 | 0.000267 | 163000 | 1.84 | 0.000342 | 186000 | 1.48 | 13.2 | 9.54 | 7.77 | 4.91 | koff (human IL-36γ, truncated [7]): 0.000218 s⁻¹; kon (human IL-36γ, truncated [7]): 147000 M⁻¹ s⁻¹; IC50 of IL-8 secretion, HaCaT, 10 nM human IL-36γ, FIG. 1D (human IL-36γ, truncated [9]): 6.43 nM; IC50 of IL-8 secretion, primary human keratinocytes, 6.25 nM human IL-36α, FIG. 4A [10]: 2.32 nM; IC50 of IL-8 secretion, primary human keratinocytes, 8 nM human IL-36α, FIG. 4B [10]: 12.3 nM; IC50 of IL-8 secretion, primary human keratinocytes, 8.4 nM human IL-36γ, FIG. 4C (human IL-36γ, truncated [11]): 12.8 nM; IC50 of IL-8 secretion, primary human keratinocytes, 8.4 nM human IL-36γ, FIG. 4D (human IL-36γ, truncated [11]): 10 nM; IC50 of IL-8 secretion, HaCaT, 10 nM human IL-36α, FIG. 1A [12]: 3.84 nM
2 | B2 | 44.2 | – | 41.2 | 3.56 | 0.0417 | 1.17e+07 | – | – | – | 2.54 | 0.0192 | 7.56e+06 | 0.824 | 0.000488 | 593000 | 0.833 | 28.3 | 15.8 | 42 | 14.2 | IC50 of IL-8 secretion, primary human monocytes, 6 nM human IL-36γ, FIG. 5C (human IL-36γ, truncated [2]): 19.1 nM; koff (human IL-36γ, truncated [7]): 0.000691 s⁻¹; kon (human IL-36γ, truncated [7]): 829000 M⁻¹ s⁻¹; IC50 of IL-8 secretion, primary human keratinocytes, 6.25 nM human IL-36α, FIG. 4A [10]: 11.1 nM; IC50 of IL-8 secretion, primary human keratinocytes, 8.4 nM human IL-36γ, FIG. 4C (human IL-36γ, truncated [11]): 15.8 nM
3 | B3 | 96.9 | – | 50.9 | – | – | – | – | – | – | – | – | – | – | – | – | – | 30.3 | 21.3 | 22.5 | 15.7 | IC50 of IL-8 secretion, primary human monocytes, 6 nM human IL-36γ, FIG. 5C (human IL-36γ, truncated [2]): 5.49 nM
4 | B4 | – | 27.5 | – | – | – | – | 1.86 | 0.0227 | 1.22e+07 | – | – | – | – | – | – | – | – | – | – | – | –
5 | B5 | 39.5 | – | 39.6 | – | – | – | – | – | – | – | – | – | – | – | – | – | 20.6 | 12.9 | 28.7 | 9.61 | –
